Data reported in patent US20150344570A1 (published 2015).

T1: FcγRIIa R extracellular domain with C-terminal His tag (human, UniProt P12318 34-217)
T1 construct: extracellular domain; also called FcgRIIa R; 2aR; not shown: His tag at the C terminus
T1 sequence (looked up): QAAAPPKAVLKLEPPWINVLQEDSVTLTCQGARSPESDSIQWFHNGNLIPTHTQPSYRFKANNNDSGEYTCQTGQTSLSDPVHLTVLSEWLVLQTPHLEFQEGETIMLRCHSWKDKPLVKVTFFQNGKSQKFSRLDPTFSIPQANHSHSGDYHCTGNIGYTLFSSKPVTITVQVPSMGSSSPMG

B1: GpH7-B3 variant A330_01G/GpL16-k0 (antibody, human IgG1, kappa)
heavy: not shown
light: DIVMTQSPLSLPVTPGEPASISCQASESLVHSNRNTYLHWYLQKPGQSPQLLIYKVSNRFSGVPDRFSGSGSGTDFTLKISRVEAEDVGVYYCSQNTHVPPTFGQGTKVEIERTVAAPSVFIFPPSDEQLKSGTASVVCLLNNFYPREAKVQWKVDNALQSGNSQESVTEQDSKDSTYSLSSTLTLSKADYEKHKVYACEVTHQGLSSPVTKSFNRGEC
notes: homodimerized: alteration in both H chains; also called Ho Ab A330_01G
B2: GpH7-B3 variant I336_08L/GpL16-k0 (antibody, human IgG1, kappa)
heavy: not shown
light: B1 light
notes: homodimerized: alteration in both H chains; also called Ho Ab I336_08L
B3: GpH7-B3 variant P331_04F/GpL16-k0 (antibody, human IgG1, kappa)
heavy: not shown
light: B1 light
notes: homodimerized: alteration in both H chains; also called Ho Ab P331_04F
B4: GpH7-B3 variant P238_04F/GpL16-k0 (antibody, human IgG1, kappa)
heavy: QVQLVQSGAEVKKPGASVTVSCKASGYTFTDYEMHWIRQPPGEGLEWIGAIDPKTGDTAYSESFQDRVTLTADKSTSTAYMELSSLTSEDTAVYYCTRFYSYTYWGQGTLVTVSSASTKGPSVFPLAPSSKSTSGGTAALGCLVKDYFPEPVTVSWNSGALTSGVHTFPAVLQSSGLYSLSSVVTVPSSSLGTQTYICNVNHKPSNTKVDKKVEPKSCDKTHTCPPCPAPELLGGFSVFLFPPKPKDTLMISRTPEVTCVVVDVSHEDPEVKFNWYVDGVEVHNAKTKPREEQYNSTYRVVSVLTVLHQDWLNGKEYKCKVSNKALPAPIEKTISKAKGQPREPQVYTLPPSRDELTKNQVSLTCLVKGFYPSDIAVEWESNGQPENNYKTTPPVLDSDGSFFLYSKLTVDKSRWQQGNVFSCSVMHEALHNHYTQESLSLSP
light: B1 light
notes: homodimerized: alteration in both H chains; also called Ho Ab P238_04F
B5: GpH7-B3 variant S267_06M/GpL16-k0 (antibody, human IgG1, kappa)
heavy: not shown
light: B1 light
notes: homodimerized: alteration in both H chains; also called Ho Ab S267_06M
B6: GpH7-B3 variant K326_20W/GpL16-k0 (antibody, human IgG1, kappa)
heavy: not shown
light: B1 light
notes: homodimerized: alteration in both H chains; also called Ho Ab K326_20W
B7: GpH7-B3 variant K326_07I/GpL16-k0 (antibody, human IgG1, kappa)
heavy: not shown
light: B1 light
notes: homodimerized: alteration in both H chains; also called Ho Ab K326_07I
B8: GpH7-B3 variant P238_03V/GpL16-k0 (antibody, human IgG1, kappa)
heavy: not shown
light: B1 light
notes: homodimerized: alteration in both H chains; also called Ho Ab P238_03V
B9: GpH7-B3 variant G237_20W/GpL16-k0 (antibody, human IgG1, kappa)
heavy: not shown
light: B1 light
notes: homodimerized: alteration in both H chains; also called Ho Ab G237_20W
B10: GpH7-B3 variant L328_14T/GpL16-k0 (antibody, human IgG1, kappa)
heavy: not shown
light: B1 light
notes: homodimerized: alteration in both H chains; also called Ho Ab L328_14T
B11: GpH7-B3 variant P271_08L/GpL16-k0 (antibody, human IgG1, kappa)
heavy: not shown
light: B1 light
notes: homodimerized: alteration in both H chains; also called Ho Ab P271_08L
B12: GpH7-B3 variant S298_08L/GpL16-k0 (antibody, human IgG1, kappa)
heavy: not shown
light: B1 light
notes: homodimerized: alteration in both H chains; also called Ho Ab S298_08L
B13: GpH7-B3 variant S337_06M/GpL16-k0 (antibody, human IgG1, kappa)
heavy: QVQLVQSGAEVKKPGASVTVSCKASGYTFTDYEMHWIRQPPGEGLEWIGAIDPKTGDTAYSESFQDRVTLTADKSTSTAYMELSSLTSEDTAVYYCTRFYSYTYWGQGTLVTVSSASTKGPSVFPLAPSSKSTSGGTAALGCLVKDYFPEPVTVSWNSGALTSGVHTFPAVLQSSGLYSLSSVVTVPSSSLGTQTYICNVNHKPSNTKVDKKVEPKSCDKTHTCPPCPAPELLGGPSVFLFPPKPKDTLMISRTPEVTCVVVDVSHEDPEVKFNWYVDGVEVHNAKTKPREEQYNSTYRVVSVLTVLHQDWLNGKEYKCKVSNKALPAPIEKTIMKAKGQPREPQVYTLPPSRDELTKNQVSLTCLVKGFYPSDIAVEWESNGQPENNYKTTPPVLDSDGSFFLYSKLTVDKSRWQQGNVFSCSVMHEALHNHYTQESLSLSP
light: B1 light
notes: homodimerized: alteration in both H chains; also called Ho Ab S337_06M
B14: GpH7-B3 variant S324_06M/GpL16-k0 (antibody, human IgG1, kappa)
heavy: not shown
light: B1 light
notes: homodimerized: alteration in both H chains; also called Ho Ab S324_06M
B15: GpH7-B3 variant G237_04F/GpL16-k0 (antibody, human IgG1, kappa)
heavy: not shown
light: B1 light
notes: homodimerized: alteration in both H chains; also called Ho Ab G237_04F
B16: GpH7-B3 variant H268_01G/GpL16-k0 (antibody, human IgG1, kappa)
heavy: not shown
light: B1 light
notes: homodimerized: alteration in both H chains; also called Ho Ab H268_01G
B17: GpH7-B3 variant K334_13S/GpL16-k0 (antibody, human IgG1, kappa)
heavy: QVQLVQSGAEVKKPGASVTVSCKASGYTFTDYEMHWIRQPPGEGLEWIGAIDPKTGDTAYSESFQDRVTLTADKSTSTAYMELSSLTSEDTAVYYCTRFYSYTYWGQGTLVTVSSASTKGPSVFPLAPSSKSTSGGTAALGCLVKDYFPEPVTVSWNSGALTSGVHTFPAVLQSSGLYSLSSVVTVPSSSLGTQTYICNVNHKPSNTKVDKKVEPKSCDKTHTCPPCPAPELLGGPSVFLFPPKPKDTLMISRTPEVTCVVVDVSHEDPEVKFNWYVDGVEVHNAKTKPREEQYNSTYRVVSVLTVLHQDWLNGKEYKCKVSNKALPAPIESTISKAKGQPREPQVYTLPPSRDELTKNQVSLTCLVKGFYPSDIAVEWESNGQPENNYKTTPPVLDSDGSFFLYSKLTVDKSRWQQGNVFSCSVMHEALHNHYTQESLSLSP
light: B1 light
notes: homodimerized: alteration in both H chains; also called Ho Ab K334_13S
B18: GpH7-B3 variant K334_08L/GpL16-k0 (antibody, human IgG1, kappa)
heavy: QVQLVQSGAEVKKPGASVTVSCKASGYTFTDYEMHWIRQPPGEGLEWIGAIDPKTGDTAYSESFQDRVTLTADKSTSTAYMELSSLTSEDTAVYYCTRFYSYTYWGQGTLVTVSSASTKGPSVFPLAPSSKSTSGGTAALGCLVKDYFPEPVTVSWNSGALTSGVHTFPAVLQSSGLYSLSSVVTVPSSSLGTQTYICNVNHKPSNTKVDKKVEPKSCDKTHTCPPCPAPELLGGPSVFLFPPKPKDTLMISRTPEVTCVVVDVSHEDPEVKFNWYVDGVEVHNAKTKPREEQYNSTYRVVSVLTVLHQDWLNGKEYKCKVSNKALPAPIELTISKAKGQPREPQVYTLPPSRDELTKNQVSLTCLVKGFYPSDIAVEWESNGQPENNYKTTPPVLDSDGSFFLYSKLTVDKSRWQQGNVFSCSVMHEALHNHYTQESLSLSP
light: B1 light
notes: homodimerized: alteration in both H chains; also called Ho Ab K334_08L
B19: GpH7-B3 variant P331_16H/GpL16-k0 (antibody, human IgG1, kappa)
heavy: not shown
light: B1 light
notes: homodimerized: alteration in both H chains; also called Ho Ab P331_16H
B20: GpH7-B3 variant K326_08L/GpL16-k0 (antibody, human IgG1, kappa)
heavy: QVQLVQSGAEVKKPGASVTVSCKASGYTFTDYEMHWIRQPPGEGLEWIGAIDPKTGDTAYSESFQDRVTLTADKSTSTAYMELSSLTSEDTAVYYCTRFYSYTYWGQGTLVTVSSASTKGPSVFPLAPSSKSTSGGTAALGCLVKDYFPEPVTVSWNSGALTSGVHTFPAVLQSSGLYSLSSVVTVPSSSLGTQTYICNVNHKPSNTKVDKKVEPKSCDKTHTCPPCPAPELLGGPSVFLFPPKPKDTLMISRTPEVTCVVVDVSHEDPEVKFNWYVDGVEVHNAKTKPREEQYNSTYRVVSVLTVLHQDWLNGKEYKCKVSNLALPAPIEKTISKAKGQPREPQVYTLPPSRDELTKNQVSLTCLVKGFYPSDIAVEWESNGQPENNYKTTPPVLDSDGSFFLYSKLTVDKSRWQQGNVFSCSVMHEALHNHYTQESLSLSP
light: B1 light
notes: homodimerized: alteration in both H chains; also called Ho Ab K326_08L
B21: GpH7-B3 variant S337_07I/GpL16-k0 (antibody, human IgG1, kappa)
heavy: not shown
light: B1 light
notes: homodimerized: alteration in both H chains; also called Ho Ab S337_07I
B22: GpH7-B3 variant S267_03V/GpL16-k0 (antibody, human IgG1, kappa)
heavy: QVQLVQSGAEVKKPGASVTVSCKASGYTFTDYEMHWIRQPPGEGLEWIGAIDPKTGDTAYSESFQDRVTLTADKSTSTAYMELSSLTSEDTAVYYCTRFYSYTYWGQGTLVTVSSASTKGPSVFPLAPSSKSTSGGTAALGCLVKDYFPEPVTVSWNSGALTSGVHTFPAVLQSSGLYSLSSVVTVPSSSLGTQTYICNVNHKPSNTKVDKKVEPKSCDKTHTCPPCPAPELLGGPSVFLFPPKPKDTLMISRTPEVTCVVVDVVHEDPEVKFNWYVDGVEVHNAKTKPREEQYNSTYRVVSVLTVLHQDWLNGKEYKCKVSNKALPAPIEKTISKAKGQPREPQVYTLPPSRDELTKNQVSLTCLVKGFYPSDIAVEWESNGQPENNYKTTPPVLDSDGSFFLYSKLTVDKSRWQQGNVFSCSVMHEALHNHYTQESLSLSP
light: B1 light
notes: homodimerized: alteration in both H chains; also called Ho Ab S267_03V
B23: GpH7-B3 variant K334_10E/GpL16-k0 (antibody, human IgG1, kappa)
heavy: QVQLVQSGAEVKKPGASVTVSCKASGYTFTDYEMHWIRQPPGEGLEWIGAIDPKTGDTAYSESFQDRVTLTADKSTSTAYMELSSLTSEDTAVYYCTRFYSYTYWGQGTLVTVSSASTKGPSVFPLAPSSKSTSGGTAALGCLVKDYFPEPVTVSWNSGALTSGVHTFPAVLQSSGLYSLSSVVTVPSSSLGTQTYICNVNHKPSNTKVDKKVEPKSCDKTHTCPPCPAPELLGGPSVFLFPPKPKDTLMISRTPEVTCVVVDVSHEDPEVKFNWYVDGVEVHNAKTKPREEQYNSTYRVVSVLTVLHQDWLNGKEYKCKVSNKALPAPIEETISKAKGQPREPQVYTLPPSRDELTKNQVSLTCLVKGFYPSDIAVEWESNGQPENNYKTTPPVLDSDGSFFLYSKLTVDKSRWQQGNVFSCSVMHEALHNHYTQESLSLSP
light: B1 light
notes: homodimerized: alteration in both H chains; also called Ho Ab K334_10E
B24: GpH7-B3 variant S239_08L/GpL16-k0 (antibody, human IgG1, kappa)
heavy: not shown
light: B1 light
notes: homodimerized: alteration in both H chains; also called Ho Ab S239_08L
B25: GpH7-B3 variant K334_04F/GpL16-k0 (antibody, human IgG1, kappa)
heavy: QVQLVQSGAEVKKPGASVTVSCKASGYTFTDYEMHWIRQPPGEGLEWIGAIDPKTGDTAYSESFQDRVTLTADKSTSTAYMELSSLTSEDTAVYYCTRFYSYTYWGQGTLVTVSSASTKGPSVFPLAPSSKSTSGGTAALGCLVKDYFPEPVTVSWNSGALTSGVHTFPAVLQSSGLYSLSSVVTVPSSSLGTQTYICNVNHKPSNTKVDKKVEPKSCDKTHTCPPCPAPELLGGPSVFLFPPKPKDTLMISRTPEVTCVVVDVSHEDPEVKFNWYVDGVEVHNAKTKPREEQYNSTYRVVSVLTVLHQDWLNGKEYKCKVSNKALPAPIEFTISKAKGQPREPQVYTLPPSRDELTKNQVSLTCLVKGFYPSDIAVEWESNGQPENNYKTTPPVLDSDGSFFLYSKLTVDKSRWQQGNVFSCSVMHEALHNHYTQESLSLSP
light: B1 light
notes: homodimerized: alteration in both H chains; also called Ho Ab K334_04F
B26: GpH7-B3 variant K326_15Y/GpL16-k0 (antibody, human IgG1, kappa)
heavy: not shown
light: B1 light
notes: homodimerized: alteration in both H chains; also called Ho Ab K326_15Y
B27: GpH7-B3 variant K326_04F/GpL16-k0 (antibody, human IgG1, kappa)
heavy: not shown
light: B1 light
notes: homodimerized: alteration in both H chains; also called Ho Ab K326_04F
B28: GpH7-B3 variant S267_09D/GpL16-k0 (antibody, human IgG1, kappa)
heavy: not shown
light: B1 light
notes: homodimerized: alteration in both H chains; also called Ho Ab S267_09D
B29: GpH7-B3 variant K334_05P/GpL16-k0 (antibody, human IgG1, kappa)
heavy: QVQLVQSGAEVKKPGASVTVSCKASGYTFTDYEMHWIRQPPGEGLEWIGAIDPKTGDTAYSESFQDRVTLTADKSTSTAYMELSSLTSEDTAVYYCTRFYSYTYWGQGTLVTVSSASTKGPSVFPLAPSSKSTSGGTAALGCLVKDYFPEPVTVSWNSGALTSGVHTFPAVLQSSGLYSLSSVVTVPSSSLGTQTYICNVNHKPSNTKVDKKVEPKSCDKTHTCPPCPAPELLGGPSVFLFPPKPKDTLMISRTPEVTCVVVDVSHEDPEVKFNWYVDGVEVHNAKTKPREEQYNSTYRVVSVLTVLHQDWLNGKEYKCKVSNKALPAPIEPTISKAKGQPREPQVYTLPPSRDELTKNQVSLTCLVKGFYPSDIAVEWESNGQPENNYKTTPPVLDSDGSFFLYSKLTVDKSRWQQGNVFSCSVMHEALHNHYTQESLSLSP
light: B1 light
notes: homodimerized: alteration in both H chains; also called Ho Ab K334_05P
B30: GpH7-B3 variant P331_02A/GpL16-k0 (antibody, human IgG1, kappa)
heavy: not shown
light: B1 light
notes: homodimerized: alteration in both H chains; also called Ho Ab P331_02A
B31: GpH7-B3 variant L235_20W/GpL16-k0 (antibody, human IgG1, kappa)
heavy: not shown
light: B1 light
notes: homodimerized: alteration in both H chains; also called Ho Ab L235_20W
B32: GpH7-B3 variant K334_19Q/GpL16-k0 (antibody, human IgG1, kappa)
heavy: not shown
light: B1 light
notes: homodimerized: alteration in both H chains; also called Ho Ab K334_19Q
B33: GpH7-B3 variant K326_03V/GpL16-k0 (antibody, human IgG1, kappa)
heavy: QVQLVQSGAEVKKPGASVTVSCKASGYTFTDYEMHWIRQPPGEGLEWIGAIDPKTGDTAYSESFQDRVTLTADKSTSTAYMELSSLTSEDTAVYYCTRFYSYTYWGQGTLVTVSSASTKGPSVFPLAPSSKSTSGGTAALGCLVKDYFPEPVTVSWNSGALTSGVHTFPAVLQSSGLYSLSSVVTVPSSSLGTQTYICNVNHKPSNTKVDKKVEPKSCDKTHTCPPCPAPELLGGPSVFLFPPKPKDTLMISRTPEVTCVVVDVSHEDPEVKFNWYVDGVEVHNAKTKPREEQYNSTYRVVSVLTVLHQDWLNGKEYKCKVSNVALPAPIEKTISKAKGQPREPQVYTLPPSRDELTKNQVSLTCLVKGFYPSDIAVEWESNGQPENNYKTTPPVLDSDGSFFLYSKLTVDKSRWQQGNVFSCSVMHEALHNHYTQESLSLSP
light: B1 light
notes: homodimerized: alteration in both H chains; also called Ho Ab K326_03V
B34: GpH7-B3 variant S267_19Q/GpL16-k0 (antibody, human IgG1, kappa)
heavy: not shown
light: B1 light
notes: homodimerized: alteration in both H chains; also called Ho Ab S267_19Q
B35: GpH7-B3 variant I332_06M/GpL16-k0 (antibody, human IgG1, kappa)
heavy: not shown
light: B1 light
notes: homodimerized: alteration in both H chains; also called Ho Ab I332_06M
B36: GpH7-B3 variant P331_15Y/GpL16-k0 (antibody, human IgG1, kappa)
heavy: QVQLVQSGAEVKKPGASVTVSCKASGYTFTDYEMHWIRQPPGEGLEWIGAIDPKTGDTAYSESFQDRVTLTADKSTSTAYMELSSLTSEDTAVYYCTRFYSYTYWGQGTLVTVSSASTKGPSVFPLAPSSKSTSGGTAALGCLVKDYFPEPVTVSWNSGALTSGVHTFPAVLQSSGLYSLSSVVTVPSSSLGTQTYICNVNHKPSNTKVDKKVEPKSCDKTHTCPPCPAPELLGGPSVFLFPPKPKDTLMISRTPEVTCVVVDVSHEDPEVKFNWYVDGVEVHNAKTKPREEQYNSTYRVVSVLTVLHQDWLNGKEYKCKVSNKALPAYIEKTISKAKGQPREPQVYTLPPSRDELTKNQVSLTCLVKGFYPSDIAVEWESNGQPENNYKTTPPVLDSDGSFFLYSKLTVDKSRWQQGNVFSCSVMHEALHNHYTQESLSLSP
light: B1 light
notes: homodimerized: alteration in both H chains; also called Ho Ab P331_15Y
B37: GpH7-B3 variant A330_12R/GpL16-k0 (antibody, human IgG1, kappa)
heavy: not shown
light: B1 light
notes: homodimerized: alteration in both H chains; also called Ho Ab A330_12R
B38: GpH7-B3 variant S337_03V/GpL16-k0 (antibody, human IgG1, kappa)
heavy: not shown
light: B1 light
notes: homodimerized: alteration in both H chains; also called Ho Ab S337_03V
B39: GpH7-B3 variant S239_18N/GpL16-k0 (antibody, human IgG1, kappa)
heavy: not shown
light: B1 light
notes: homodimerized: alteration in both H chains; also called Ho Ab S239_18N
B40: GpH7-B3 variant S239_10E/GpL16-k0 (antibody, human IgG1, kappa)
heavy: not shown
light: B1 light
notes: homodimerized: alteration in both H chains; also called Ho Ab S239_10E
B41: GpH7-B3 variant P331_20W/GpL16-k0 (antibody, human IgG1, kappa)
heavy: not shown
light: B1 light
notes: homodimerized: alteration in both H chains; also called Ho Ab P331_20W
B42: GpH7-B3 variant L328_13S/GpL16-k0 (antibody, human IgG1, kappa)
heavy: not shown
light: B1 light
notes: homodimerized: alteration in both H chains; also called Ho Ab L328_13S
B43: GpH7-B3 variant S337_09D/GpL16-k0 (antibody, human IgG1, kappa)
heavy: not shown
light: B1 light
notes: homodimerized: alteration in both H chains; also called Ho Ab S337_09D
B44: GpH7-B3 variant K334_02A/GpL16-k0 (antibody, human IgG1, kappa)
heavy: not shown
light: B1 light
notes: homodimerized: alteration in both H chains; also called Ho Ab K334_02A

Target: T1, FcγRIIa R extracellular domain with …
Assay: SPR (Biacore), relative FcγRIIa R binding, GpH7-B3/GpL16-k0 = 100
Experimental: Analysis of interaction between objective antibody and the FcγR was carried out using Biacore T100 (GE Healthcare). HBS-EP+ (GE Healthcare) was used as the running buffer, and the measurement temperature was set to 25° C. Chips produced by immobilizing the antigen peptide by the amine coupling method to a Series S Sencor Chip CM5 (GE Healthcare), or alternatively, chips produced by allowing preliminarily biotinylated antigen peptides to interact with and immobilize onto a Series S Sensor Chip SA (certified) (GE Healthcare) were used. Antibodies of interest were captured onto an antigen peptide-immobilized chip, and allowed to interact to each FcγR diluted with running buffer. To regenerate and repeatedly use the chip, the antibodies captured on the chip were washed off by reacting 10 mM glycine-HCl, pH 1.5.

| Binder | Ho/Con_2aR |
| --- | --- |
| B1 | 106 % of control |
| B2 | 105 % of control |
| B3 | 106 % of control |
| B4 | 146 % of control |
| B5 | 102 % of control |
| B6 | 120 % of control |
| B7 | 133 % of control |
| B8 | 116 % of control |
| B9 | 107 % of control |
| B10 | 118 % of control |
| B11 | 102 % of control |
| B12 | 101 % of control |
| B13 | 101 % of control |
| B14 | 118 % of control |
| B15 | 113 % of control |
| B16 | 122 % of control |
| B17 | 106 % of control |
| B18 | 105 % of control |
| B19 | 100 % of control |
| B20 | 131 % of control |
| B21 | 103 % of control |
| B22 | 115 % of control |

| Binder | Ho/Con_2aR |
| --- | --- |
| B23 | 106 % of control |
| B24 | 106 % of control |
| B25 | 110 % of control |
| B26 | 134 % of control |
| B27 | 133 % of control |
| B28 | 167 % of control |
| B29 | 102 % of control |
| B30 | 102 % of control |
| B31 | 114 % of control |
| B32 | 108 % of control |
| B33 | 139 % of control |
| B34 | 110 % of control |
| B35 | 105 % of control |
| B36 | 105 % of control |
| B37 | 101 % of control |
| B38 | 102 % of control |
| B39 | 103 % of control |
| B40 | 122 % of control |
| B41 | 102 % of control |
| B42 | 108 % of control |
| B43 | 114 % of control |
| B44 | 100 % of control |
